We go through eight molecules from publication PMC3939493, “Structure of the SAS-6 cartwheel hub from Leishmania major” (eLife, 2014).

As a reminder, the stoichiometry N is a count of units in the complex or per binding partner. The Kd is the concentration at which binding is half-saturated. High values mean a looser complex, low ones a tighter complex.

For series [1], the target named is L. major SAS-6^97–424 wild-type (Leishmania major). The series can be described thus: SEC-MALS; Superdex S-200 10/300, 50 mM bisTris, 100 mM NaCl, pH 7.0, 0.126% DMSO, with or without 1 mM PK9119; L. major constructs injected at 25 mg/ml (675 µM monomer), zebrafish constructs at 10 mg/ml (263 µM monomer); peak concentrations about 10-fold lower. For orientation: SEC sorts molecules by how far they enter the pores of the column.

Series [2] has as its target L. major SAS-6^97–274 Y215K mutant (Leishmania major). The series can be described thus: AUC; sedimentation equilibrium; 100, 200 and 400 µM protein; 11300, 17000 and 21200 rpm; 4°C; 50 mM Tris, 100 mM NaCl, pH 8.0; monomer-dimer equilibrium model (dimer to monomers).
Series [3] has as its target L. major SAS-6^97–320 F257E (Leishmania major). The series can be described thus: crystal structure; L. major SAS-6^97–320 F257E, sitting drop, 100 mM NaCitrate pH 5.85, 21% PEG-3000, 16°C; 94.7 mg/ml protein; 2.9 Å; four molecules in the asymmetric unit.
Series [4] addresses L. major SAS-6^97–274 wild-type (Leishmania major). The experiment in a line: AUC; sedimentation equilibrium; 100, 200 and 400 µM protein; 11300, 17000 and 21200 rpm; 4°C; 50 mM Tris, 100 mM NaCl, pH 8.0; monomer-dimer equilibrium model (dimer to monomers).
Series [5] has as its target L. major SAS-6^97–424 F257E mutant (Leishmania major). The series can be described thus: SEC-MALS; Superdex S-200 10/300, 50 mM bisTris, 100 mM NaCl, pH 7.0, 0.126% DMSO, with or without 1 mM PK9119; L. major constructs injected at 25 mg/ml (675 µM monomer), zebrafish constructs at 10 mg/ml (263 µM monomer); peak concentrations about 10-fold lower.
Series [6] has as its target T1, SAS-6 (Leishmania major, UniProt E9AFQ5).
T1 construct: gene LMJF_35_4280; SAS-6^97–424
T1 sequence (E9AFQ5 97-424): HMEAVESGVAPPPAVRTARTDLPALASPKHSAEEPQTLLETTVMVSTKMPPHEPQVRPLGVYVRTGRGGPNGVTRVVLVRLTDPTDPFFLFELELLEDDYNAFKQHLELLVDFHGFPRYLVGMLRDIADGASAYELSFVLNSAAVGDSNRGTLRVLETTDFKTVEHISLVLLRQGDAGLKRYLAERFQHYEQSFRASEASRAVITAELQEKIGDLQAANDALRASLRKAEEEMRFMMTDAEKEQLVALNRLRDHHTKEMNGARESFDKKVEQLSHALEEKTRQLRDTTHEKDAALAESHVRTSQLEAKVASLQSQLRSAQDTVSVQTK
The series can be described thus: SEC-MALS of purified protein with […] PK9119 (oligomerization reduced). In kind it is biochemical.

In series [7] the target is T2, SAS-6 (Danio rerio, UniProt Q7ZVT3, F131D).
T2 construct: gene sass6; Dr SAS-6^1–326
T2 sequence (Q7ZVT3 1-326 F131D): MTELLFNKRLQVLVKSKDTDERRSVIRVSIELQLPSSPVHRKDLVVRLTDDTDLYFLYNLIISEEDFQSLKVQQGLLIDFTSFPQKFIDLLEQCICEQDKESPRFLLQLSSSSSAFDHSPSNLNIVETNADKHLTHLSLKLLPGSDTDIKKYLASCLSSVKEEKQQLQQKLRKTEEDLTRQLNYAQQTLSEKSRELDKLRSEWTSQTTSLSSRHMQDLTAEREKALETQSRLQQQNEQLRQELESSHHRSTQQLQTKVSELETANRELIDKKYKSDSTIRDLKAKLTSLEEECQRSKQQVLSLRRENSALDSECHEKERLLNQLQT
The experiment in a line: SEC-MALS of purified protein with […] PK9119 (oligomerization reduced, less than for L. major). In kind it is biochemical.

Series [8] concerns the molecule itself. The experiment in a line: SEC-MALS; Superdex S-200 10/300, 50 mM bisTris, 100 mM NaCl, pH 7.0, 0.126% DMSO, with or without 1 mM PK9119; L. major constructs injected at 25 mg/ml (675 µM monomer), zebrafish constructs at 10 mg/ml (263 µM monomer); peak concentrations about 10-fold lower.

“L. major SAS-6^97–424 wild-type (domain or fragment)” showed a stoichiometry N in series [1] of 6.
“L. major SAS-6^97–274 Y215K mutant (domain or fragment)” returned a Kd in series [2] of 190 µM.
For “L. major SAS-6^97–320 F257E (domain or fragment)”, the stoichiometry N in series [3] stood at 8.
In series [4], “L. major SAS-6^97–274 wild-type (domain or fragment)” registered an equilibrium dissociation constant (Kd) of 622 µM.
For “L. major SAS-6^97–424 F257E mutant (domain or fragment)”, the stoichiometry N in series [5] turned out to be 2.
On to `CCc1cc(Br)cc2c(CN(C)C)c[nH]c12` [PK9119, (5-bromo-7-ethyl-1H-indol-3-ylmethyl)-dimethyl-amine], for which the “SEC-MALS of purified protein with 1 mM PK9119 (oligomerization reduced)” value on SAS-6 [6] is listed as “a decrease in the analysed mass from MALS, demonstrating that PK9119 partially affects head-to-head dimerization”. Besides, the “SEC-MALS of purified protein with 1 mM PK9119 (oligomerization reduced, less tha)” value on SAS-6 [7] is given as “zebrafish SAS-6 oligomerization was also affected by the presence of PK9119, although to a lesser extent”.

B1: Danio rerio SAS-6^1–326 F131D mutant (domain or fragment)
chain: GPHMTELLFNKRLQVLVKSKDTDERRSVIRVSIELQLPSSPVHRKDLVVRLTDDTDLYFLYNLIISEEDFQSLKVQQGLLIDFTSFPQKFIDLLEQCICEQDKESPRFLLQLSSSSSAFDHSPSNLNIVETNADKHLTHLSLKLLPGSDTDIKKYLASCLSSVKEEKQQLQQKLRKTEEDLTRQLNYAQQTLSEKSRELDKLRSEWTSQTTSLSSRHMQDLTAEREKALETQSRLQQQNEQLRQELESSHHRSTQQLQTKVSELETANRELIDKKYKSDSTIRDLKAKLTSLEEECQRSKQQVLSLRRENSALDSECHEKERLLNQLQT
notes: Dimer by SEC-MALS; source: E. coli BL21 Rosetta, purified (NiNTA, proteolytic tag cleavage, SEC, ion exchange); not shown: His tag, N-terminal, cleaved
Turning to B1, the “stoichiometry N” value in series [8] worked out at 2.

B2: Danio rerio SAS-6^1–326 wild-type (domain or fragment)
chain: GPHMTELLFNKRLQVLVKSKDTDERRSVIRVSIELQLPSSPVHRKDLVVRLTDDTDLYFLYNLIISEEDFQSLKVQQGLLIDFTSFPQKFIDLLEQCICEQDKESPRFLLQLSSSSSAFDHSPSNLNIVETNAFKHLTHLSLKLLPGSDTDIKKYLASCLSSVKEEKQQLQQKLRKTEEDLTRQLNYAQQTLSEKSRELDKLRSEWTSQTTSLSSRHMQDLTAEREKALETQSRLQQQNEQLRQELESSHHRSTQQLQTKVSELETANRELIDKKYKSDSTIRDLKAKLTSLEEECQRSKQQVLSLRRENSALDSECHEKERLLNQLQT
notes: also called zebrafish SAS-6; source: E. coli BL21 Rosetta, purified (NiNTA, proteolytic tag cleavage, SEC, ion exchange); not shown: His tag, N-terminal, cleaved
In the case of B2, the binding result in series [8] is recorded as “binds”.
